The record followed here is the Human Domainome abundance scans (Beltran et al. 2025).

B1: GA-binding protein alpha chain, residues 172 to 250; numbered along this chain, Q06546 (parent)
chain: GYRKEQERLGIPYDPIQWSTDQVLHWVVWVMKEFSMTDIDLTTLNISGRELCSLNQEDFFQRVPRGEILWSHLELLRKY

± gives the uncertainty stated by the source.

The variants in this data set derive from B1. The experiment in a line: abundance fitness (aPCA) (normalised: wild type 0, dead -1); higher = more abundant; growth selection in yeast, the domain comes from the species named. The following applies: Homo sapiens.
Turning to GYRKEQERLGIPYDPIQWSTDQVLHWVVWVMKEFSMKDIDLTTLNISGRELCSLNQEDFFQRVPRGEILWSHLELLRKY [T37K], the abundance fitness was found to be 0.039 ± 0.056.
As to GYRKEQERLGIPYDPIQWSTDQVLHWVVWVMKEFSMWDIDLTTLNISGRELCSLNQEDFFQRVPRGEILWSHLELLRKY [T37W], the abundance fitness was -0.115 ± 0.045.
Under GYRKEQERLGIPYDPIQWSTDQVLHWVVWVMKEFSMFDIDLTTLNISGRELCSLNQEDFFQRVPRGEILWSHLELLRKY [T37F] stands -0.019 ± 0.05; under GYRKEQERLGIPYDPIQWSTDQVLHWVVWVMKEFSMPDIDLTTLNISGRELCSLNQEDFFQRVPRGEILWSHLELLRKY [T37P], 0.014 ± 0.035; under GYRKEQERLGIPYDPIQWSTDQVLHWVVWVMKEFSMCDIDLTTLNISGRELCSLNQEDFFQRVPRGEILWSHLELLRKY [T37C], -0.044 ± 0.052.
As for GYRKEQERLGIPYDPIQWSTDQVLHWVVWVMKEFSMNDIDLTTLNISGRELCSLNQEDFFQRVPRGEILWSHLELLRKY [T37N], the figure is -0.027 ± 0.074; as for GYRKEQERLGIPYDPIQWSTDQVLHWVVWVMKEFSMEDIDLTTLNISGRELCSLNQEDFFQRVPRGEILWSHLELLRKY [T37E], 0.017 ± 0.057.
As for GYRKEQERLGIPYDPIQWSTDQVLHWVVWVMKEFSMQDIDLTTLNISGRELCSLNQEDFFQRVPRGEILWSHLELLRKY [T37Q], the figure is -0.009 ± 0.05; as for GYRKEQERLGIPYDPIQWSTDQVLHWVVWVMKEFSMVDIDLTTLNISGRELCSLNQEDFFQRVPRGEILWSHLELLRKY [T37V], -0.1 ± 0.041.
Turning to GYRKEQERLGIPYDPIQWSTDQVLHWVVWVMKEFSMADIDLTTLNISGRELCSLNQEDFFQRVPRGEILWSHLELLRKY [T37A], the abundance fitness was -0.03 ± 0.065.
Under GYRKEQERLGIPYDPIQWSTDQVLHWVVWVMKEFSMRDIDLTTLNISGRELCSLNQEDFFQRVPRGEILWSHLELLRKY [T37R] stands -0.033 ± 0.034; under GYRKEQERLGIPYDPIQWSTDQVLHWVVWVMKEFSMMDIDLTTLNISGRELCSLNQEDFFQRVPRGEILWSHLELLRKY [T37M], -0.028 ± 0.053; under GYRKEQERLGIPYDPIQWSTDQVLHWVVWVMKEFSMDDIDLTTLNISGRELCSLNQEDFFQRVPRGEILWSHLELLRKY [T37D], -0.22 ± 0.32.
As for GYRKEQERLGIPYDPIQWSTDQVLHWVVWVMKEFSMGDIDLTTLNISGRELCSLNQEDFFQRVPRGEILWSHLELLRKY [T37G], the figure is -0.004 ± 0.038.
Regarding GYRKEQERLGIPYDPIQWSTDQVLHWVVWVMKEFSMHDIDLTTLNISGRELCSLNQEDFFQRVPRGEILWSHLELLRKY [T37H], the abundance fitness is -0.037 ± 0.088.
Under GYRKEQERLGIPYDPIQWSTDQVLHWVVWVMKEFSMSDIDLTTLNISGRELCSLNQEDFFQRVPRGEILWSHLELLRKY [T37S] stands -0.07 ± 0.037; under GYRKEQERLGIPYDPIQWSTDQVLHWVVWVMKEFSMIDIDLTTLNISGRELCSLNQEDFFQRVPRGEILWSHLELLRKY [T37I], -0.256 ± 0.071; under GYRKEQERLGIPYDPIQWSTDQVLHWVVWVMKEFSMTTIDLTTLNISGRELCSLNQEDFFQRVPRGEILWSHLELLRKY [D38T], -0.08 ± 0.06.
For the variant GYRKEQERLGIPYDPIQWSTDQVLHWVVWVMKEFSMTHIDLTTLNISGRELCSLNQEDFFQRVPRGEILWSHLELLRKY [D38H], the abundance fitness is -0.055 ± 0.07.
Regarding GYRKEQERLGIPYDPIQWSTDQVLHWVVWVMKEFSMTVIDLTTLNISGRELCSLNQEDFFQRVPRGEILWSHLELLRKY [D38V], the abundance fitness was -0.364 ± 0.046.
For GYRKEQERLGIPYDPIQWSTDQVLHWVVWVMKEFSMTQIDLTTLNISGRELCSLNQEDFFQRVPRGEILWSHLELLRKY [D38Q], the abundance fitness is -0.099 ± 0.077.
As for GYRKEQERLGIPYDPIQWSTDQVLHWVVWVMKEFSMTIIDLTTLNISGRELCSLNQEDFFQRVPRGEILWSHLELLRKY [D38I], the figure is -0.626 ± 0.14.
Turning to GYRKEQERLGIPYDPIQWSTDQVLHWVVWVMKEFSMTAIDLTTLNISGRELCSLNQEDFFQRVPRGEILWSHLELLRKY [D38A], the abundance fitness was -0.154 ± 0.041.
Under GYRKEQERLGIPYDPIQWSTDQVLHWVVWVMKEFSMTKIDLTTLNISGRELCSLNQEDFFQRVPRGEILWSHLELLRKY [D38K] stands -0.091 ± 0.057; under GYRKEQERLGIPYDPIQWSTDQVLHWVVWVMKEFSMTSIDLTTLNISGRELCSLNQEDFFQRVPRGEILWSHLELLRKY [D38S], -0.063 ± 0.039.
Take GYRKEQERLGIPYDPIQWSTDQVLHWVVWVMKEFSMTRIDLTTLNISGRELCSLNQEDFFQRVPRGEILWSHLELLRKY [D38R]: the abundance fitness was -0.168 ± 0.031.
Under GYRKEQERLGIPYDPIQWSTDQVLHWVVWVMKEFSMTFIDLTTLNISGRELCSLNQEDFFQRVPRGEILWSHLELLRKY [D38F] stands -0.492 ± 0.085; under GYRKEQERLGIPYDPIQWSTDQVLHWVVWVMKEFSMTPIDLTTLNISGRELCSLNQEDFFQRVPRGEILWSHLELLRKY [D38P], -0.009 ± 0.037.
As for GYRKEQERLGIPYDPIQWSTDQVLHWVVWVMKEFSMTNIDLTTLNISGRELCSLNQEDFFQRVPRGEILWSHLELLRKY [D38N], the figure is -0.082 ± 0.072; as for GYRKEQERLGIPYDPIQWSTDQVLHWVVWVMKEFSMTEIDLTTLNISGRELCSLNQEDFFQRVPRGEILWSHLELLRKY [D38E], 0.03 ± 0.066.
Under GYRKEQERLGIPYDPIQWSTDQVLHWVVWVMKEFSMTGIDLTTLNISGRELCSLNQEDFFQRVPRGEILWSHLELLRKY [D38G] stands -0.031 ± 0.035.
Take GYRKEQERLGIPYDPIQWSTDQVLHWVVWVMKEFSMTMIDLTTLNISGRELCSLNQEDFFQRVPRGEILWSHLELLRKY [D38M]: the abundance fitness was -0.364 ± 0.078.
As for GYRKEQERLGIPYDPIQWSTDQVLHWVVWVMKEFSMTWIDLTTLNISGRELCSLNQEDFFQRVPRGEILWSHLELLRKY [D38W], the figure is -0.149 ± 0.041; as for GYRKEQERLGIPYDPIQWSTDQVLHWVVWVMKEFSVTDIDLTTLNISGRELCSLNQEDFFQRVPRGEILWSHLELLRKY [M36V], -0.013 ± 0.034.
